Target: T1, Ste5-Myc9 (S. cerevisiae, UniProt P32917 1-917)
T1 construct: Ste5 MAPK scaffold protein of S. cerevisiae; source: S. cerevisiae (EY1775 ste5 bar1; EY3136/EY3141), expressed from plasmids (pSKM19 2μ; pSKM90), in whole cell extract; not shown: Myc9, C-terminal, kept
T1 sequence (looked up): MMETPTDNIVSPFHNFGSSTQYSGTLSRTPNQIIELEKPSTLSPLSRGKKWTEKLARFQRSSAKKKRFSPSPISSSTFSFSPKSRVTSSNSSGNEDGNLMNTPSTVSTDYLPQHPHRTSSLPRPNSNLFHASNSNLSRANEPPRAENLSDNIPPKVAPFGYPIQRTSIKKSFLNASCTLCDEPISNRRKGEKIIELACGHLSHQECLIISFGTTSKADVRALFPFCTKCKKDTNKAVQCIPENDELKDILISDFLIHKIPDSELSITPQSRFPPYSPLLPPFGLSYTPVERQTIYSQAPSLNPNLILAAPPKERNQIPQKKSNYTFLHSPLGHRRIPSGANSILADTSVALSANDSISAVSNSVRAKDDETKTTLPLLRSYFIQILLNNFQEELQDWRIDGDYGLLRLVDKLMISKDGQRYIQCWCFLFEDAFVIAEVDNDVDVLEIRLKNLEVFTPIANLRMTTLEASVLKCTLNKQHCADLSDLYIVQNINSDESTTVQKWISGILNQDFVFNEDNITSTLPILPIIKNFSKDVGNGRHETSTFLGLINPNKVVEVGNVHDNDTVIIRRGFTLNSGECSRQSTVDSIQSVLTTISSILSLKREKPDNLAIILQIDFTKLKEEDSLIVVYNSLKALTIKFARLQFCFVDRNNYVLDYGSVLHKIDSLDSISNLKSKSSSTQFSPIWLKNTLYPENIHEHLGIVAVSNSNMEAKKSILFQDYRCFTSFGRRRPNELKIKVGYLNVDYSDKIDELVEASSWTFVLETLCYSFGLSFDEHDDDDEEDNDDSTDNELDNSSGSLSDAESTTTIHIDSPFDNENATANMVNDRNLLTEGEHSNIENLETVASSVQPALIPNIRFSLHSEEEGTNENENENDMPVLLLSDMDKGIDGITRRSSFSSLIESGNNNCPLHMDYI
Test: affinity purification with mass spectrometry; Ste5-Myc9 IP'd with 9E10 from 10 mg yeast whole cell extract (EY1775, cells without or with 50 nM α factor for 2 hours); 20 mM Tris-HCl pH 7.2, 125 mM potassium acetate, 0.1% Tween 20; Coomassie-stained SDS gel, 70 kDa band digested with trypsin, LC-MS/MS; ImageJ densitometry of the gel
Conditions: partners not purified

B1: Hsp70 Ssa1 (endogenous) (natural protein)
chain: not shown
notes: Hsp70 chaperone Ssa1 of S. cerevisiae; also called 70 kDa protein; band a; source: endogenous, S. cerevisiae EY1775 whole cell extract
ratio Ste5-Myc9:70 kDa Hsp70 (Coomassie densitometry), with α factor: 0.67 | ratio Ste5-Myc9:70 kDa Hsp70 (Coomassie densitometry), without α factor: 1.45

Reference: publication PMC10584130, “Effects of HSP70 chaperones Ssa1 and Ssa2 on Ste5 scaffold and the mating mitogen-activated protein kinase (MAPK) pathway in Saccharomyces cerevisiae” (PLOS ONE, 2023)
